According to US20060029603A1 (GlaxoSmithKline, published 2006):
Like-named read-outs stand apart in the source and are kept apart here.

Legend:
[1] = biological target: T1, GST-human NOGO-A56 (human, UniProt P08515 1-218 = GST); test: SPR (Biacore 3000), GST-human NOGO-A56 amine-coupled to CM5, antibody as analyte; mean (SD) of four experiments
T1 construct: GST-tagged fusion expressed in E. coli BL21 and purified on glutathione-sepharose; coated on ELISA plates or amine-coupled to a CM5 chip; also called hNOGO; recombinant human NOGO
Method: (§1) The binding kinetics of the anti-NOGO monoclonal antibody (mAb) to recombinantly expressed human NOGO-A (GST-human NOGO-A56) was analysed using the Biacore3000 biosensor. The hNOGO-A chip was prepared as follows:
(§2) hNOGO (GST-human NOGO-A56) was immobilised to a CM5 chip by primary amine coupling using the Biacore Wizard program designed for targeted immobilisation levels. The CM5 sensor surface was activated by passing a solution of 50 mM N-hydroxy-succinimide (NHS) and 200 mM N-ethyl-N′-dimethylaminopropyl […] (EDC). Then hNOGO in sodium acetate buffer, pH5.0 or pH 4.5, was passed over the chip and immobilised. After immobilisation was complete any still activated esters were blocked by an injection of 1M ethanolamine hydrochloride, pH8.5.
(§3) The anti-NOGO mAbs were diluted down in HBS-EP (10 mM HEPES, pH 7.4, 150 mM NaCl, 3 mM EDTA, and 0.005% P-20 surfactant) and binding studies were carried out at range of defined antibody concentrations. All runs were referenced against a blanked sensor surface (one that had been activated and blocked as described earlier but had no addition of ligand). Analysis of binding was carried out using the BIAevaluation kinetic analysis software version 4.1. Biacore analysis of other antibodies of the invention essentially followed the same protocol as described herein.

[2] = biological target: T1, GST-human NOGO-A56; test: ELISA, coated GST-human NOGO-A56, transfection supernatant, anti-human kappa-HRP, OD 490 nm
Method: (§4) GST-human NOGO-A56 (SEQ ID: 76) at 1 μg/ml in PBS was coated onto Nunc Immunosorp plates (100 μl per well) at 4° C. overnight. Wells were rinsed once with TBS+0.05% Tween (TBST) then incubated with 2% BSA in TBST to block non-specific binding sites at room temperature for 1 hour. Antibodies were diluted in TBST+2% BSA to 10 μg/ml and 1/2 dilutions made from this. Antibodies were added to wells in duplicate and incubated at room temperature for 1 hour. Wells were washed three times with TBST then incubated with anti-human kappa peroxidase conjugate (1:2000) for 1 hour. The wells were washed three times with TBST and then incubated with 100 μl OPD peroxidase substrate (Sigma) per well for 10 minutes. The colour reaction was stopped by the addition of 25 μl concentrated H₂SO₄. Optical density at 490 nm was measured using a plate reader. Background values read from wells with no antibody were subtracted.

[3] = biological target: T1, GST-human NOGO-A56; test: SPR (Biacore 3000), GST-human NOGO-A56 on CM5, antibody as analyte; single experiment
Method: as §1, §2, §3

[4] = biological target: T1, GST-human NOGO-A56; test: ELISA, coated GST-human NOGO-A56, transfection supernatant, anti-human kappa-HRP, OD 490 nm; remark: listed apart in the source
Method: as §4

[5] = biological target: T1, GST-human NOGO-A56; test: SPR (Biacore) off-rate ranking, CHO-K1 transient supernatant over GST-human NOGO-A56 chip; mean (SD) of three runs
Method: as §2
(§5) The hNOGO chip was prepared as for kinetic analysis. Cell supernatants where taken directly from transient transfections of CHO-K1 cells. These were passed directly over the sensor surface and the interaction measured. A mock transfected cell supernatant was used for double referencing to remove any artefacts due to the tissue culture media. All runs were referenced against a blanked sensor surface (one that had been activated and blocked as described earlier but had no addition of ligand). Analysis of binding was carried out using the BIAevaluation kinetic analysis software version 4.1.

[6] = biological target: T1, GST-human NOGO-A56; test: ELISA, coated GST-human NOGO-A56, transfection supernatant, anti-human kappa-HRP, OD 490 nm; remark: listed apart in the source
Method: as §4

[7] = biological target: T1, GST-human NOGO-A56; test: as above; remark: listed apart in the source
Method: as §4

[8] = biological target: T1, GST-human NOGO-A56; test: SPR (Biacore) off-rate ranking, CHO-K1 transient supernatant over GST-human NOGO-A56 chip; mean (SD) of two runs
Method: as §2, §5

[9] = biological target: T1, GST-human NOGO-A56; test: ELISA, coated GST-human NOGO-A56, transfection supernatant, anti-human kappa-HRP, OD 490 nm; remark: listed apart in the source
Method: as §4

[10] = biological target: T1, GST-human NOGO-A56; test: as above; remark: listed apart in the source
Method: as §4

[11] = biological target: T1, GST-human NOGO-A56; test: as above; remark: listed apart in the source
Method: as §4

[12] = biological target: T1, GST-human NOGO-A56; test: SPR (Biacore 3000), GST-human NOGO-A56 on CM5, antibody as analyte; mean (SD) of two experiments
Method: as §2, §3

[13] = biological target: T1, GST-human NOGO-A56; test: SPR (Biacore) off-rate ranking, CHO-K1 transient supernatant over GST-human NOGO-A56 chip; single experiment
Method: as §2, §5

[14] = biological target: T1, GST-human NOGO-A56; test: SPR (Biacore 3000), GST-human NOGO-A56 on CM5, antibody as analyte; mean (SD) of two experiments; mean (SD) of two separate experiments
Method: as §2, §3

[15] = biological target: T1, GST-human NOGO-A56; test: SPR (BiaCore kinetic analysis), human NOGO

T1 sequence (P08515 1-218, tags or fused parts left off): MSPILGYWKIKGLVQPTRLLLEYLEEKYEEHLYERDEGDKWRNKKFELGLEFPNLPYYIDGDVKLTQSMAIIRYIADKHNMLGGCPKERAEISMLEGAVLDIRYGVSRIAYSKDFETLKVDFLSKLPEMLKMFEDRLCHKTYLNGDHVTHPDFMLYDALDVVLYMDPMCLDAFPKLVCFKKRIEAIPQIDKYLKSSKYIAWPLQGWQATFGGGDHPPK

B1: H16L16 (antibody, human IgG1, kappa)
heavy: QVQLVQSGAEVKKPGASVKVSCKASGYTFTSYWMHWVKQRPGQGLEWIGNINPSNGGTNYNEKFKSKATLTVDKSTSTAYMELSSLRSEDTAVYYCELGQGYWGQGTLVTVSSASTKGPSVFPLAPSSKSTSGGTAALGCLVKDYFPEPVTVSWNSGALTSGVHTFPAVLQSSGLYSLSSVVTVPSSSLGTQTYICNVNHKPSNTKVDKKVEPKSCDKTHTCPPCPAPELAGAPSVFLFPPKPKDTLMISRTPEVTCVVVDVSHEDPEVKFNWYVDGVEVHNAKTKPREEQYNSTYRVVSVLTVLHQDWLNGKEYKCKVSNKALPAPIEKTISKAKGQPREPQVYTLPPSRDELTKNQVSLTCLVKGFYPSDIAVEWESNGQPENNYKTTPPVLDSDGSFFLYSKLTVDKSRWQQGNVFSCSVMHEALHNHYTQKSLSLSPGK
light: DIVMTQSPLSNPVTLGQPVSISCRSSKSLLYKDGKTYLNWFLQRPGQSPQLLIYLMSTRASGVPDRFSGGGSGTDFTLKISRVEAEDVGVYYCQQLVEYPLTFGQGTKLEIKRTVAAPSVFIFPPSDEQLKSGTASVVCLLNNFYPREAKVQWKVDNALQSGNSQESVTEQDSKDSTYSLSSTLTLSKADYEKHKVYACEVTHQGLSSPVTKSFNRGEC
notes: Humanised 2A10; Human gamma1 mutated constant region and human kappa; also called H16L16 FL
Kd [1]: 1.26 nM | koff [1]: 0.00554 s⁻¹ | kon [1]: 4.37e+06 M⁻¹ s⁻¹ | EC50 (read off the curve) [2]: ~0.04 µg/mL | Kd [3]: 1 nM | koff [3]: 0.00569 s⁻¹ | kon [3]: 5.47e+06 M⁻¹ s⁻¹ | EC50 (read off the curve) [4]: ~0.06 µg/mL | koff [5]: 0.00664 s⁻¹ | EC50 (read off the curve) [6]: ~0.06 µg/mL

B2: H18L16 (antibody, human IgG1, kappa, V domains shown)
VH: QVQLVQSGAEVVKPGASVKLSCKASGYTFTSYWMHWVKQRPGQGLEWIGNINPSNGGTNYNEKFKSKATLTVDKSSSTAYMELSSLRSEDSAVYYCELGQGYWGQGTLVTVSS
VL: DIVMTQSPLSNPVTLGQPVSISCRSSKSLLYKDGKTYLNWFLQRPGQSPQLLIYLMSTRASGVPDRFSGGGSGTDFTLKISRVEAEDVGVYYCQQLVEYPLTFGQGTKLEIKR
notes: Humanised 2A10; also called H18L16 FL
Kd [1]: 1.62 nM | koff [1]: 0.00586 s⁻¹ | kon [1]: 3.64e+06 M⁻¹ s⁻¹ | EC50 (read off the curve) [7]: ~0.4 µg/mL | koff [8]: 0.00687 s⁻¹ | EC50 (read off the curve) [9]: ~0.4 µg/mL | EC50 (read off the curve) [4]: ~0.04 µg/mL

B3: HcLc (chimera of 2A10: murine 2A10 VH and VL with human IgG constant regions) (antibody, V domains shown)
VH: QVQLQQPGTELVKPGASVKLSCKASGYTFTSYWMHWVKQRPGQGLEWIGNINPSNGGTNYNEKFKSKATLTVDKSSSTAYMQLSSLTSEDSAVYYCELGQGYWGQGTLVTVSS
VL: DIVITQDELSNPVTSGESVSISCRSSKSLLYKDGKTYLNWFLQRPGQSPQLLIYLMSTRASGVSDRFSGSGSGTDFTLEISRVKAEDVGVYYCQQLVEYPLTFGAGTKLELKR
notes: Human gamma1 mutated constant region and human kappa; also called 2A10 chimeric antibody; the chimera
Kd [1]: 1.41 nM | koff [1]: 0.00378 s⁻¹ | kon [1]: 2.7e+06 M⁻¹ s⁻¹ | EC50 (read off the curve) [2]: ~0.02 µg/mL | EC50 (read off the curve) [7]: ~0.2 µg/mL | EC50 (read off the curve) [10]: ~0.09 µg/mL | EC50 (read off the curve) [11]: ~0.05 µg/mL | koff [8]: 0.00376 s⁻¹ | Kd [3]: 1.6 nM | koff [3]: 0.00412 s⁻¹ | kon [3]: 2.62e+06 M⁻¹ s⁻¹ | Kd [12]: 0.995 nM | koff [12]: 0.00346 s⁻¹ | kon [12]: 3.52e+06 M⁻¹ s⁻¹ | EC50 (read off the curve) [9]: ~0.2 µg/mL

B4: H6L18 (antibody, human IgG1, kappa, V domains shown)
VH: QVQLVQSGAEVKKPGASVKVSCKASGYTFTSYWMHWVRQAPGQGLEWIGNINPSNGGTNYNEKFKSRATMTRDTSTSTAYMELSSLRSEDTAVYYCELGQGYWGQGTLVTVSS
VL: DIVMTQDPLSNPVTLGQPVSISCRSSKSLLYKDGKTYLNWFLQRPGQSPQLLIYLMSTRASGVSDRFSGSGSGTDFTLKISRVEAEDVGVYYCQQLVEYPLTFGQGTKLEIKR
notes: Tested as CHO-K1 supernatant
EC50 (read off the curve) [7]: ~0.4 µg/mL | EC50 (read off the curve) [9]: ~0.5 µg/mL | koff [13]: 0.0106 s⁻¹

B5: H6Lc (antibody, human IgG1, kappa, V domains shown)
VH: QVQLVQSGAEVKKPGASVKVSCKASGYTFTSYWMHWVRQAPGQGLEWIGNINPSNGGTNYNEKFKSRATMTRDTSTSTAYMELSSLRSEDTAVYYCELGQGYWGQGTLVTVSS
VL: DIVITQDELSNPVTSGESVSISCRSSKSLLYKDGKTYLNWFLQRPGQSPQLLIYLMSTRASGVSDRFSGSGSGTDFTLEISRVKAEDVGVYYCQQLVEYPLTFGAGTKLELKR
notes: Humanised heavy chain H6 paired with chimeric light chain Lc; The pairing is read from the name
Kd [14]: 2.21 nM | koff [12]: 0.00284 s⁻¹ | kon [12]: 2.17e+06 M⁻¹ s⁻¹

B6: murine monoclonal antibody 2A10 (antibody, V domains shown)
VH: QVQLQQPGTELVKPGASVKLSCKASGYTFTSYWMHWVKQRPGQGLEWIGNINPSNGGTNYNEKFKSKATLTVDKSSSTAYMQLSSLTSEDSAVYYCELGQGYWGQGTTLTVSS
VL: DIVITQDELSNPVTSGESVSISCRSSKSLLYKDGKTYLNWFLQRPGQSPQLLIYLMSTRASGVSDRFSGSGSGTDFTLEISRVKAEDVGVYYCQQLVEYPLTFGAGTKLELK
notes: Murine antibody; also called donor antibody
Kd [15]: ~1 nM | koff [15]: ~0.00184 s⁻¹
